According to article PMC248471 (Biological Procedures Online, 2003):
Where two headings read alike, the source gives them in different places.

Key:
[1] = biological target: T1, 72 kDa heat shock protein (HSP72), recombinant human (human, UniProt P0DMV8 1-641); test: SPR
[2] = biological target: T1, 72 kDa heat shock protein (HSP72), …; test: SPR; remark: listed apart in the source

T1 sequence (P0DMV8 whole entry): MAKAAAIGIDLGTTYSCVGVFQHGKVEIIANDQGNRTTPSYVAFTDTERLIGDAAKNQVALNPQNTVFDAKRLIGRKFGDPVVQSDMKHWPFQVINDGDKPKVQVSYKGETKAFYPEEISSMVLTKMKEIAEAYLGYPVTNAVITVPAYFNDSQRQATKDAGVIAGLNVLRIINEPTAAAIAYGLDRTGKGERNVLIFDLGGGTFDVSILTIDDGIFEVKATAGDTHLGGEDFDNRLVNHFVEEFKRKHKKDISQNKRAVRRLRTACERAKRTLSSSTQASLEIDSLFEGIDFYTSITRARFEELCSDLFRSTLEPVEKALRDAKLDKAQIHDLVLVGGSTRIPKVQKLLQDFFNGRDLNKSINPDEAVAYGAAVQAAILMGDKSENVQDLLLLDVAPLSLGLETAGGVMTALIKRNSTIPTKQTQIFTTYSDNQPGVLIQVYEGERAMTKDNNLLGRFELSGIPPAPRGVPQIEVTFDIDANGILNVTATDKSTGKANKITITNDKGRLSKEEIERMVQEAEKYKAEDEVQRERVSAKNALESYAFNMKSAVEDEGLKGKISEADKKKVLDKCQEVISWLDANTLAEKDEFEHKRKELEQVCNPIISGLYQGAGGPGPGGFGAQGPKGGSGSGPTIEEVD

DTDTPIVYNDRNLLD [Peptide N, the extreme carboxyl terminus (15 amino acids) of the Edmonston MV N protein] showed a Kd [1] of 1 µM, a kon [1] of 357 M⁻¹ s⁻¹ and a Kd [2] of 4 µM.
